Like-named read-outs stand apart in the source and are kept apart here.
T1: human OX40 (human, UniProt P43489 29-216)
T1 construct: also called hOX40
T1 sequence (looked up): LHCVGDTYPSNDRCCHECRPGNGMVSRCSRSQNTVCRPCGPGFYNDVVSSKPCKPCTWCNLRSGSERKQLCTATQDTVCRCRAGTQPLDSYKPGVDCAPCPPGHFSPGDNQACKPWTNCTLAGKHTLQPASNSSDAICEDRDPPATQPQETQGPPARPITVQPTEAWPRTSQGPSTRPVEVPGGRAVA

T2: cynomolgus monkey 4-1BB (SPR analyte) (cynomolgus monkey, UniProt A9YYE7 24-186)
T2 construct: also called cy4-1BB
T2 sequence: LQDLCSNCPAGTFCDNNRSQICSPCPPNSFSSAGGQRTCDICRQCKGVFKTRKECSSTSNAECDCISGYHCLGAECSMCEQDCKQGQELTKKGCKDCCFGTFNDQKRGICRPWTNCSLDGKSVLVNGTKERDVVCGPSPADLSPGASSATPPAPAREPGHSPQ


Columns and labels:
[1] = biological target: T3, human His-tagged 4-1BB recombinant protein (human, UniProt Q07011 24-186); assay: ELISA binding on 4-1BB-his, bivalent monoparatopic Fab-like constructs
T3 construct: also called human 4-1BB; h4-1BB; not shown: His tag

human OX40 = biological target: T1, human OX40; assay: binding assay (FIG. 2), bivalent Fab-like
human CD40 = human CD40 (human, UniProt P25942 21-193); assay: binding assay (FIG. 2), bivalent Fab-like
Chain of human CD40 (P25942 21-193 limits assumed): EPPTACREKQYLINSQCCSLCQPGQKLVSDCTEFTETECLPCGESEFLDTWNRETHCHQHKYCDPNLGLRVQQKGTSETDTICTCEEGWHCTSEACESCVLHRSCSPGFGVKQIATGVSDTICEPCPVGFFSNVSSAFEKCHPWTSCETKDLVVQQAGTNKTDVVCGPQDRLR

[2] = biological target: T4, extracellular domain of human 4-1BB (amino acid residues 24-186 of SEQ ID NO: 13) (human, UniProt Q07011 24-186); assay: X-ray crystallography of the complex
T4 construct: Used for X-ray crystallography

human PD-1 (SPR analyte) [3] = biological target: T5, human PD-1 (SPR analyte) (human, UniProt Q15116 25-167, limits assumed); assay: SPR (Biacore 8K), binder captured on anti-Fc chip, target as analyte, 1:1 model
T5 construct: Soluble analyte in SPR; also called hPD-1
T5 sequence (Q15116 25-167 limits assumed): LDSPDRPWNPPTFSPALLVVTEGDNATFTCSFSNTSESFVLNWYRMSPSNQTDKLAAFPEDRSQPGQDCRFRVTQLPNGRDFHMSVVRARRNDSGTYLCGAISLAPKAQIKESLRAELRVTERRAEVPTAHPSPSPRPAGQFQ

[4] = biological target: T6, human PD-1 expressed on cells (300.19 pre-B cells, PD-1 NFAT-luc2 Jurkat cells, primary T-cells) (human, UniProt Q15116 25-288); assay: flow cytometry on PD-1+ Jurkat T-cells
T6 construct: GenBank NP 005009.2 printed; also called hPD-1; Pre-B hPD-1
T6 sequence (Q15116 25-288 limits assumed): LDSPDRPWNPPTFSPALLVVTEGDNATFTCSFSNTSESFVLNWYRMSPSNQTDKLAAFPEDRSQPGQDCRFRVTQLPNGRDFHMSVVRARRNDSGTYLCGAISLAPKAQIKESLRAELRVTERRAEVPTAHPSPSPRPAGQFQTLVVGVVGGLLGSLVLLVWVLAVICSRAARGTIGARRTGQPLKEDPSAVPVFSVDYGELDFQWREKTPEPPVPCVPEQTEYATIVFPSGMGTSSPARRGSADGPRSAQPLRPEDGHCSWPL

[5] = biological target: T6, human PD-1 expressed on cells (300.19 …); assay: cell-based or functional assay
[6] = biological target: T7, cynomolgus monkey 4-1BB expressed on 300.19 pre-B cells (cynomolgus monkey, UniProt A9YYE7 24-254); assay: flow cytometry on 300.19 pre-B cells
T7 construct: whole, on cells; also called cy4-1BB; Pre-B cy4-1BB

[7] = biological target: T2, cynomolgus monkey 4-1BB (SPR analyte); assay: SPR (Biacore 8K), binder captured on anti-Fc chip, target as analyte, 1:1 model
[8] = biological target: T8, cynomolgus monkey PD-1 (SPR analyte) (cynomolgus monkey, UniProt B0LAJ3 25-170); assay: SPR, KD on cyPD-1 against KD on hPD-1
T8 construct: also called cyPD-1
T8 sequence (B0LAJ3 entry or part of it limits assumed): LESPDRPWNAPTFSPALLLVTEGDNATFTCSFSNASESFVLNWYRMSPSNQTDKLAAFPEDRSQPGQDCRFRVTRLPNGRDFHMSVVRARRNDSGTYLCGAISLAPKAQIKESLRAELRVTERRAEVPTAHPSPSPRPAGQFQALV

human PD-1 (SPR analyte) [9] = biological target: T5, human PD-1 (SPR analyte); assay: SPR (Biacore 8K), binder captured on anti-Fc chip, target as analyte, 1:1 model; remark: listed apart in the source
[10] = biological target: T8, cynomolgus monkey PD-1 (SPR analyte); assay: as above
[11] = biological target: T7, cynomolgus monkey 4-1BB expressed on …; assay: flow cytometry on 300.19 pre-B cells, cy4-1BB against h4-1BB
[12] = biological target: T7, cynomolgus monkey 4-1BB expressed on …; assay: flow cytometry on 300.19 pre-B cells, cy4-1BB
[13] = biological target: T2, cynomolgus monkey 4-1BB (SPR analyte); assay: SPR, KD on cy4-1BB against KD on h4-1BB
[14] = biological target: T9, cynomolgus monkey PD-1 expressed on 300.19 pre-B cells (cynomolgus monkey, UniProt B0LAJ3 25-288); assay: flow cytometry on 300.19 pre-B cells
T9 construct: also called cyPD-1; Pre-B cyPD-1
T9 sequence (B0LAJ3 entry or part of it limits assumed): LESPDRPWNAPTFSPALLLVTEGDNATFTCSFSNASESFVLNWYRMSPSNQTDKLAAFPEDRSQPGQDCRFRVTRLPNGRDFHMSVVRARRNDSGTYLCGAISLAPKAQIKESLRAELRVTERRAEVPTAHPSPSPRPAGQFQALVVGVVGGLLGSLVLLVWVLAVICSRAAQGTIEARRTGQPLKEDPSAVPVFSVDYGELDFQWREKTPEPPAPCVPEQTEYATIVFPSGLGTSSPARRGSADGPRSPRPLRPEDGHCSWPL

[15] = biological target: T6, human PD-1 expressed on cells (300.19 …); assay: flow cytometry on 300.19 pre-B cells
[16] = biological target: T9, cynomolgus monkey PD-1 expressed on …; assay: flow cytometry on 300.19 pre-B cells, cyPD-1 against hPD-1
[17] = biological target: T7, cynomolgus monkey 4-1BB expressed on …; assay: flow cytometry on 300.19 pre-B cells, cy4-1BB, against Optimized Construct #3
[18] = biological target: T3, human His-tagged 4-1BB recombinant …; assay: binding assay (FIG. 2), bivalent monoparatopic Fab-like

| EC50 [4] [nM] | EC50 value (nM), PD-1 reporter assay [5] [nM] | EC50 [6] [nM] | Ratio KD cyno/human [8] [fold] | Kd (human PD-1 (SPR analyte) [9]) [nM] | Kd [10] [nM] | Ratio EC50 cy/h [11] [fold] | EC50 [14] [nM] | EC50 [15] [nM] | Ratio EC50 cy/h [16] [fold] | masking efficacy (masked EC50/naked EC50) [17] [fold] | Binder | also measured |
| --- | --- | --- | --- | --- | --- | --- | --- | --- | --- | --- | --- | --- |
| – | – | – | – | – | – | – | – | – | – | – | anti-4-1BB clone #5d VHH, bivalent monoparatopic Fab-like construct (other, not shown: human CL (lambda) constant domain, tag if any; human IgG1 CH1 domain, HA and 6-His tags) chain 1: QVQLQESGGGLVQPGGSLRLSCVASGFTFANYRMSWVRQAPGKGLEWVSSIKKSGNRTTYSDSVKGRFTISRDNAKNTMFLQMDNLTPEDTAVYFCARGTRYKMSTSGPGTQVTVSS chain 2: QVQLQESGGGLVQPGGSLRLSCVASGFTFANYRMSWVRQAPGKGLEWVSSIKKSGNRTTYSDSVKGRFTISRDNAKNTMFLQMDNLTPEDTAVYFCARGTRYKMSTSGPGTQVTVSS | binding result [1]: binds |
| – | – | – | – | – | – | – | – | – | – | – | anti-4-1BB VHH Clone #5, bivalent monoparatopic Fab-like construct (other, not shown: human CL (lambda) constant domain, tag if any; human IgG1 CH1 domain, HA and 6-His tags) chain 1: QVQLQESGGGLVQPGGSLRLSCAASGFTFSDHTMTWVRQAPGKGLEWVSSISSGGSRIIYADSVKGRFTISRDNAKNTLYLQMNNLRPEDTAVYFCARGTRYKMSTSGPGTQVTVSS chain 2: QVQLQESGGGLVQPGGSLRLSCAASGFTFSDHTMTWVRQAPGKGLEWVSSISSGGSRIIYADSVKGRFTISRDNAKNTLYLQMNNLRPEDTAVYFCARGTRYKMSTSGPGTQVTVSS | EC50 (read off the curve) [1]: ~3 nM; binding result (human OX40): no binding; binding result (human CD40): no binding |
| – | – | – | – | – | – | – | – | – | – | – | anti-4-1BB clone #5 VHH (VHH) VHH: QVQLQESGGGLVQPGGSLRLSCAASGFTFSDHTMTWVRQAPGKGLEWVSSISSGGSRIIYADSVKGRFTISRDNAKNTLYLQMNNLRPEDTAVYFCARGTRYKMSTSGPGTQVTVSS | binding result [2]: binds |
| 0.5 | 1.39 | 0.91 | 2 | 7.29 | 14.9 | 0.3 | 1.45 | 1.4 | 1.04 | – | Optimized Construct #3 (bispecific antibody, also called Optimized Construct #3 (unmasked); naked) heavy: not shown light: EIVLTQSPATLSLSPGERATLSCGASQSVPINFLAWYQQKPGLAPRLLIYEASSRHTGIPDRFSGSGSGTDFTLTISRLEPEDFAVYYCGQYGSSPYTFGQGTKLEIKRTVAAPSVFIFPPSDEQLKSGTASVVCLLNNFYPREAKVQWKVDNALQSGNSQESVTEQDSKDSTYSLSSTLTLSKADYEKHKVYACEVTHQGLSSPVTKSFNRGEC | Kd (human PD-1 (SPR analyte) [3]): 4.54 nM; Kd [7]: 21.1 nM; masking efficacy (masked EC50/naked EC50) [12]: 1 fold; Ratio KD cyno/human [13]: 1.9 fold |
| 0.7 | 2.43 | 6.24 | 2.3 | 6.42 | 14.9 | 0.07 | 1.67 | 1.65 | 0.99 | 7 | MC1 (conditionally-active, masked Optimized Construct #3; MM1 and cleavable linker #1) (bispecific antibody) heavy: not shown light: EIVLTQSPATLSLSPGERATLSCGASQSVPINFLAWYQQKPGLAPRLLIYEASSRHTGIPDRFSGSGSGTDFTLTISRLEPEDFAVYYCGQYGSSPYTFGQGTKLEIKRTVAAPSVFIFPPSDEQLKSGTASVVCLLNNFYPREAKVQWKVDNALQSGNSQESVTEQDSKDSTYSLSSTLTLSKADYEKHKVYACEVTHQGLSSPVTKSFNRGEC | – |
| 0.89 | 2.62 | 5.9 | 2 | 6.73 | 13.4 | 0.23 | 1.4 | 1.76 | 0.8 | 6 | MC3 (conditionally-active, masked Optimized Construct #3; MM1 and cleavable linker #2) (bispecific antibody) heavy: not shown light: EIVLTQSPATLSLSPGERATLSCGASQSVPINFLAWYQQKPGLAPRLLIYEASSRHTGIPDRFSGSGSGTDFTLTISRLEPEDFAVYYCGQYGSSPYTFGQGTKLEIKRTVAAPSVFIFPPSDEQLKSGTASVVCLLNNFYPREAKVQWKVDNALQSGNSQESVTEQDSKDSTYSLSSTLTLSKADYEKHKVYACEVTHQGLSSPVTKSFNRGEC | – |
| 0.78 | 2.54 | 16.6 | 2.2 | 7.73 | 17.3 | 2.44 | 1.5 | 2.97 | 0.51 | 18 | MC2 (conditionally-active, masked Optimized Construct #3; MM2 and cleavable linker #1) (bispecific antibody) heavy: not shown light: EIVLTQSPATLSLSPGERATLSCGASQSVPINFLAWYQQKPGLAPRLLIYEASSRHTGIPDRFSGSGSGTDFTLTISRLEPEDFAVYYCGQYGSSPYTFGQGTKLEIKRTVAAPSVFIFPPSDEQLKSGTASVVCLLNNFYPREAKVQWKVDNALQSGNSQESVTEQDSKDSTYSLSSTLTLSKADYEKHKVYACEVTHQGLSSPVTKSFNRGEC | – |
| 0.72 | 2.81 | 9.81 | 2.7 | 6.82 | 18.3 | 1.01 | 4.8 | 2.68 | 1.79 | 11 | MC4 (conditionally-active, masked Optimized Construct #3; MM2 and cleavable linker #2) (bispecific antibody) heavy: not shown light: EIVLTQSPATLSLSPGERATLSCGASQSVPINFLAWYQQKPGLAPRLLIYEASSRHTGIPDRFSGSGSGTDFTLTISRLEPEDFAVYYCGQYGSSPYTFGQGTKLEIKRTVAAPSVFIFPPSDEQLKSGTASVVCLLNNFYPREAKVQWKVDNALQSGNSQESVTEQDSKDSTYSLSSTLTLSKADYEKHKVYACEVTHQGLSSPVTKSFNRGEC | – |
| – | – | – | – | – | – | – | – | – | – | – | anti-4-1BB clone #2 VHH (VHH) VHH: QVQLQESGGGLVQPGGSLRLSCAASGGLFSINTGGWYRQAPGKQRELVATITHDDRTNYAESVKGRFTLSRDNAKNTVYLQMNSLKPEDTAVYYCRLGSAAIRGYWGQGTQVTVSS | binding result [2]: binds |
| – | – | – | – | – | – | – | – | – | – | – | anti-4-1BB VHH Clone #2, bivalent monoparatopic Fab-like construct (other, not shown: human CL (lambda) constant domain, tag if any; human IgG1 CH1 domain, HA and 6-His tags) chain 1: QVQLQESGGGLVQPGGSLRLSCAASGGLFSINTGGWYRQAPGKQRELVATITHDDRTNYAESVKGRFTLSRDNAKNTVYLQMNSLKPEDTAVYYCRLGSAAIRGYWGQGTQVTVSS chain 2: QVQLQESGGGLVQPGGSLRLSCAASGGLFSINTGGWYRQAPGKQRELVATITHDDRTNYAESVKGRFTLSRDNAKNTVYLQMNSLKPEDTAVYYCRLGSAAIRGYWGQGTQVTVSS | binding result [18]: binds; binding result (human OX40): no binding; binding result (human CD40): no binding |
| – | – | – | – | – | – | – | – | – | – | – | anti-4-1BB clone #5a VHH, bivalent monoparatopic Fab-like construct (other, not shown: human CL (lambda) constant domain, tag if any; human IgG1 CH1 domain, HA and 6-His tags) chain 1: QVQLQESGGGWVQPGGSLRLSCAASGFAFRDFTMSWARQAPGERFEWISSINPSGGSQSYLPSVKGRFTISRDNAKNTMFLQMDNLTPEDTAVYFCARGTRYKMSTSGPGTQVTVSS chain 2: QVQLQESGGGWVQPGGSLRLSCAASGFAFRDFTMSWARQAPGERFEWISSINPSGGSQSYLPSVKGRFTISRDNAKNTMFLQMDNLTPEDTAVYFCARGTRYKMSTSGPGTQVTVSS | EC50 (read off the curve) [1]: ~0.5 nM |

— US20240262923A1 (Sanofi, published 2024)
